As a reminder, the Kd is the equilibrium constant for the complex coming apart.

Data on one molecule can be found in patent US20210139593A1 (UNIVERSIDAD DE CHILE, published 2021).

The assay deals with T1, recombinant MICA (rMICA) (UniProt Q29983 24-307, limits assumed).
T1 construct: Recombinant MICA coated on ELISA plates
T1 sequence (looked up): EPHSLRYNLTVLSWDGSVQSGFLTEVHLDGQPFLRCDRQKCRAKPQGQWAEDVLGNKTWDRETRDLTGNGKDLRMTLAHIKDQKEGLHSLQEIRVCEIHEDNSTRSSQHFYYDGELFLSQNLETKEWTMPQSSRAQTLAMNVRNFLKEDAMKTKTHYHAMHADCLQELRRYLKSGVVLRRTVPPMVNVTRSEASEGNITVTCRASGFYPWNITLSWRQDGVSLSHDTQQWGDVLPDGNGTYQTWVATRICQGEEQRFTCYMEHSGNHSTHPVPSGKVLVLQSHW
The assay is described as follows: method not stated.

B1: anti-MICA scFv protein (scFv-aMICA) (scFv)
scFv: EFGVVMTQSPDFQSVTPKEKVTITCRASQSIGRSIHWYQQKPDQSPKLLVMYASQSFSGVPSRFSGSGSGTDFTLTINSLEAEDAATYYCHQSYSVPRSFGQGTKLEIKRTVAAGGSSRSSSSGGGGSGGGGQVQLQESGPGLVKPSQTLSLTCTVSGDSVRSAYSSWNWIRQPPGKGLEWIGQIHPNGNTYYNPSLMSRITVSIDTSKNQFSLKLDSVTAADTAVYFCATEGVTSESGSFDIWGQGRMVIVSSASTKGPSVAS
notes: Monomeric soluble scFv produced from the phagemid pUCH1 Amber; also called scFv-MICA
Consider B1, for which the Ka worked out at 7.4e+06 M⁻¹ and the Kd amounted to 135 nM.
